Data set [1] can be described thus: Intrinsic tryptophan fluorescence thermal unfolding. Type of data set: physicochemical. The source says:
Thermal stability of the two candidates was also investigated using intrinsic protein tryptophan fluorescence by measuring midpoint of transition (Tm-FL) of temperature-induced unfolding. This assay monitors changes in tertiary structure semi-quantitatively upon unfolding induced by high temperature.

Data set [2] is described as follows: Differential scanning calorimetry (DSC). Type of data set: physicochemical. The following applies: temperature-induced unfolding. How it is done:
Thermal stability of the two candidates was investigated using DSC by measuring midpoint of transition (Tm) of temperature-induced unfolding. The Tm value of the major unfolding transition for h38C2 was 73.5° C.
(In general: DSC measures the heat that a sample takes up or gives off during a temperature scan.)

The subject of a further data set is ob/ob mice. In words: Mouse efficacy in ob/ob mice (OGTT, body weight, liver, gene expression). Type of data set: in vivo. As to conditions: ob/ob mice; for mean glucose AUC % during OGTT: single dose 10 mg/ml as printed (FIG. 6B). As for the experimental part: The efficacy of FGF21 antibodies conjugates was evaluated in two murine obese insulin resistant models—ob/ob mice and high-fat diet-induced obese mice. For both models, male mice (6-8 weeks of age for ob/ob, 12-14 weeks of age for DIO with high-fat diet initiated at 6 weeks of age) were housed 2-4/cage and FGF21 antibody conjugates were administered by SC injection. Body weight was measured daily in the morning. Glucose tolerance was assessed by oral glucose tolerance test. Briefly, mice were fasted for 4-5 hrs in the morning of the day of testing. A basal blood sample was obtained and blood glucose levels were determined using a portable glucometer. Following basal sample, glucose was administered by oral gavage, and blood samples were drawn from 15 to 120 mins thereafter.
For […] expression, frozen visceral WAT samples collected from the in vivo efficacy studies were homogenized. Total RNA was extracted from the tissue homogenates, and Glut1 and GAPDH mRNA expression was measured using a Quantitect Probe RT-PCR kit and running a quantitative real time PCR reaction in a Taqman machine (Applied Biosystems). The effect of treatment was determined by a fold change in Glut1 mRNA levels normalized by the GAPDH mRNA levels from each sample.

On the set-up of data set [3]: species or system Swiss-Webster mice. As to conditions: mouse, in vivo, sc. How it is done: The PK of FGF21 antibody conjugates were examined in mice after IV or SC administration. […] Antibody conjugates concentrations in serum were determined using an ELISA which captured the FGF21 portion of the antibody conjugates through a monoclonal anti-hFGF21 antibody bound to a 96-well plate. FGF21 antibody conjugates bound to the plate were detected through an anti-hFc monoclonal antibody, and concentrations were determined using a standard curve of the PK dosing solution diluted into serum-containing assay buffer. SC bioavailability was calculated as the ratio of the area-under the curve (AUC) of the SC serum concentration profile divided by the AUC of the IV serum concentration profile.

Data set [4] deals with Glut1 mRNA expression in differentiated 3T3-L1 adipocytes. The experiment in a line: Glut1 Taqman assay. Type of data set: cell-based. The following applies: differentiated 3T3-L1 adipocytes, 6 hrs; read-out: EC50 in Glut1 Taqman assay. How it is done: Differentiated 3T3-L1 adipocytes were used to measure the Glut1 mRNA expression by qPCR method. Overnight serum starved day 10-14 differentiated 3T3-L1 adipocytes were treated with compounds for 6 hrs. Total RNA was extracted from these cells, and Glut1 and GAPDH mRNA expression was measured using a Quantitect Probe RT-PCR kit and running a quantitative real time PCR reaction in a Taqman machine (Applied Biosystems®). The bioactivity of the compounds was determined by a fold change in Glut1 mRNA levels normalized by the GAPDH mRNA levels from each sample. EC50 values as measurements of the potency of the compounds were obtained from the dose response curves in the assay.
3T3-L1 adipocytes were seeded at day 8 in 24-well tissue culture plates (Falcon®, Cat#353047), and incubated in DMEM complete medium (10% FBS, 2 mM L-glutamine, 1% P/S) at 37° C., 5% CO2. […] The medium was aspirated, and then RNA extracted from the cells using the RNeasy mini Kit according to the manufacturer's instructions. RNA was measured at A260 nm using the Spectramax® Plus spectrophotometer.
Background: Real-time PCR tracks product formation cycle by cycle.

In data set [5] the test system is Differentiated 3T3-L1 adipocytes. The experiment in a line: Glucose uptake assay. Type of data set: cell-based. The following applies: 3T3-L1 adipocytes, 24 hrs. As for the experimental part:
Differentiated 3T3-L1 adipocytes were treated with compounds in the absence of serum for 24 hrs. Cells were then incubated with ^14C-2-deoxyglucose for 1 hr and glucose uptake into the cells was quantitated in Wallac 1450 MicroBeta (Trilux) instrument. Glucose uptake was expressed in counts per min (CPM). EC50 values as measurements of the potency of the compounds were obtained from the dose response curves in the assay.

Data set [6] is classed as physicochemical. As for the experimental part:
FGF21ΔH-D79C mutant protein was produced in E. coli and purified as described above. FGF21ΔH-D79C was expressed from 1 L of culture. A 150 mg inclusion body was obtained and 85 mg purified protein was obtained, representing a 60% yield. To test the stability of FGF21ΔH-D79C as well as FGF21ΔH (SEQ ID NO:2), freshly thawed samples were kept at 4° C. over seven days, and examined for their integrity by RP-HPLC, SEC_HPLC, Ellman assay and SDS-PAGE on day 0, 3 and 7. […] PBS (pH7.4) and 20 mM Tris-HCl 50 mM NaCl (pH7.5) made no significant difference of stability of FGF21ΔH-D79C.
It is possible that the solubility of FGF21ΔH-D79C may be reduced at pH6.0. The stability of FGF21ΔH-D79C was examined upon multiple freeze/thaw cycles. The proteins were repeated to freeze (−80 C) and thaw (4° C.) 9 times.

What is called EC50 is the concentration at which the effect is half-maximal.

For “h38C2: humanized aldolase catalytic antibody h38C2 IgG1, SEQ ID NOS:25 and 26”, in data set [1], the “Tm-FL of the major unfolding transition” value was “approximately 74.1 °C”. In addition, in data set [2], the “Tm of the major unfolding transition (DSC)” value came to 73.5 °C.

B1: Ab-L1-FGF21ΔH-H125C: FGF21ΔH-H125C combined with L1 at H125C and conjugated with h38C2 (conjugate, listed as Homo sapiens)
chain: PIPDSSPLLQFGGQVRQRYLYTDDAQQTEAHLEIREDGTVGGAADQSPESLLQLKALKPGVIQILGVKTSRFLCQRPDGALYGSLHFDPEACSFRELLLEDGYNVYQSEAHGLPLHLPGNKSPHRDPCPRGPARFLPLPGLPPALPEPPGILAPQPPDVGSSDPLSMVGPSQGRSPSYAS
modifications: conjugated via L1 linker to h38C2 antibody
As for B1, in the data set with ob/ob mice, the “body weight gain” value is recorded as “reduce body weight gain”, the “glucose tolerance” value is “improve glucose tolerance” and the “mean glucose AUC % during OGTT” value is on record as 51%. Also, the “Mean Glucose AUC (% of vehicle control) during OGTT” value with ob/ob mice (single SC dose 1 mg/kg (FIGS. 4A, 4B)) is 87 % of vehicle control. Also, the “Mean Glucose AUC (% of vehicle control) during OGTT” value in the data set on ob/ob mice (single SC dose 3 mg/kg (FIGS. 4A, 4B)) was 66 % of vehicle control. For the same molecule, in the data set on ob/ob mice (single dose 10 mg/kg (FIG. 6A)), the “Cumulative body weight change, mean body weight” value stood at 0.8 g. The SC bioavailability in data set [3] came out at 67%. Further, in data set [1], the “Tm-FL of the major unfolding transition” value is approximately 79.7 °C. In data set [4], the EC50 was 3.2 nM. Further, in data set [2], the “Tm of the major unfolding transition (DSC)” value worked out at 79 °C.

B2: FGF21ΔH-K56R-K59-K69R-K122R: FGF21 lysine mutant, SEQ ID NO:19 (protein, listed as Homo sapiens)
chain: PIPDSSPLLQFGGQVRQRYLYTDDAQQTEAHLEIREDGTVGGAADQSPESLLQLRALKPGVIQILGVRTSRFLCQRPDGALYGSLHFDPEACSFRELLLEDGYNVYQSEAHGLPLHLPGNRSPHRDPAPRGPARFLPLPGLPPAPLEPPGILAPQPPDVGSSDPLSMVGPSQGRSPSYAS
Turning to B2, the EC50 in data set [5] stood at 0.9 nM; in data set [4] it was 0.6 nM.

B3: FGF21ΔH-D79C: FGF21 cysteine mutant, SEQ ID NO:13 (protein, listed as Homo sapiens)
chain: PIPDSSPLLQFGGQVRQRYLYTDDAQQTEAHLEIREDGTVGGAADQSPESLLQLKALKPGVIQILGVKTSRFLCQRPCGALYGSLHFDPEACSFRELLLEDGYNVYQSEAHGLPLHLPGNKSPHRDPAPRGPARFLPLPGLPPALPEPPGILAPQPPDVGSSDPLSMVGPSQGRSPSYAS
B3: the “Cumulative body weight change, mean body weight” value in the data set on ob/ob mice (single dose 2 mg/kg (FIG. 6A)) is 2.1 g. Besides, the “mean glucose AUC % during OGTT” value in the data set on ob/ob mice is given as 54%. For the same molecule, the EC50 in data set [4] is 2.1 nM. In addition, in data set [6], the “stability upon freeze/thaw cycles” value is “Neither sample showed any difference”. Moreover, the “fraction oxidized at pH 6.0” value in data set [6] (4° C., three-day incubation) was “more than half”. In addition, in data set [6] (pH 7.4), the “stability at neutral pH 7.4” value is on record as “stable”.

B4: FGF21ΔH-K56-K59R-K69R-K122R: FGF21 lysine mutant, SEQ ID NO:18 (protein, listed as Homo sapiens)
chain: PIPDSSPLLQFGGQVRQRYLYTDDAQQTEAHLEIREDGTVGGAADQSPESLLQLKALRPGVIQILGVRTSRFLCQRPDGALYGSLHFDPEACSFRELLLEDGYNVYQSEAHGLPLHLPGNRSPHRDPAPRGPARFLPLPGLPPAPLEPPGILAPQPPDVGSSDPLSMVGPSQGRSPSYAS
Turning to B4, the EC50 was 5.5 nM in data set [5] and 0.9 nM in data set [4].

B5: FGF21ΔH-K56R-K59R-K69-K122R: FGF21 lysine mutant, SEQ ID NO:20 (protein, listed as Homo sapiens)
chain: PIPDSSPLLQFGGQVRQRYLYTDDAQQTEAHLEIREDGTVGGAADQSPESLLQLRALRPGVIQILGVKTSRFLCQRPDGALYGSLHFDPEACSFRELLLEDGYNVYQSEAHGLPLHLPGNRSPHRDPAPRGPARFLPLPGLPPAPLEPPGILAPQPPDVGSSDPLSMVGPSQGRSPSYAS
Turning to B5, the results for the EC50 in data set [5] and in data set [4] were 5.2 nM and 1.3 nM, respectively.

B6: FGF21ΔH-K56-K59R-K69R-K122: FGF21 lysine mutant, SEQ ID NO:21 (protein, listed as Homo sapiens)
chain: PIPDSSPLLQFGGQVRQRYLYTDDAQQTEAHLEIREDGTVGGAADQSPESLLQLRALRPGVIQILGVRTSRFLCQRPDGALYGSLHFDPEACSFRELLLEDGYNVYQSEAHGLPLHLPGNKSPHRDPAPRGPARFLPLPGLPPAPLEPPGILAPQPPDVGSSDPLSMVGPSQGRSPSYAS
As to B6, the EC50 in data set [5] was 1.7 nM; in data set [4], 2.6 nM.

The record behind these values is patent US8722622B2, “FGF21 conjugates and anti-diabetic uses thereof” (COVX Technologies Ireland, Limited, priority 2010, dated 2014).
